The source of these data is patent US12332249B1, “Biomolecule detection method using diffusion ordered spectroscopy” (KUWAIT UNIVERSITY, priority 2024, dated 2025).

The conditions of series [1]: aqueous native avidin; cited from earlier work.
Series [2] is described as follows: Hydrodynamic radius from DOSY diffusion coefficient by Stokes-Einstein equation. Conditions: obtained using Equation 2 (Stokes-Einstein). In kind it is physicochemical. Here is the method:
According to Stokes-Einstein equation mentioned below, the diffusion coefficient of solutes is directly linked to the hydrodynamic radius.
Where Rh is the hydrodynamic radius, kB is the Boltzmann constant, T is the temperature in K and η is the solution viscosity ([…] for D2O, and 30° C.) and D is the diffusion coefficient. The diffusion coefficient value is directly proportional to the temperature (T) and inversely proportional to the hydrodynamic radius. Thus, the hydrodynamic radius is related to the molecular weight, the higher the molecular weight, the larger the radius, the lower the diffusion and vice versa.

Turning to “avidin: protein with four identical subunits, each containing one binding site for biotin; from Sigma Aldrich”, in series [1], the “hydrodynamic radius by dynamic light scattering (DLS)” value is 26.4±0.3 Å. The “hydrodynamic radius (Rh)” value in series [2] worked out at 22.02 Å.
